Measurements reported in patent US20210347908A1 (ELPISCIENCE SUZHOU BIOPHARMA, published 2021).

How the values were obtained:
[1] = target: T1, full length human SIRPα v1 stably expressed on CHOK1 cells (human, UniProt P78324 31-504); experiment: FACS on CHOK1-human SIRPα v1-1B4 cells
T1 construct: whole, on cells; also called CHOK1-human SIRPα v1-1B4 cells; CHOK1-human SIRPα v1
Experimental: (§1) Species cross reactivity of the purified hybridoma antibodies against human, cyno and mouse SIRPα was determined by FACS assay using CHOK1-human SIRPα v1-1B4 cells, CHOK1-cyno SIRPα-2A2 cells, and CHOK1-C57BL/6 mouse SIRPα-2.22 cells, which stably expressing SIRPα protein. Briefly the antibodies were incubated with 2×10⁵ target cells at 4° C. for 1 hour. After washing, fluorescence labeled anti-mouse or anti-human IgG 2nd antibody (Life Technologies) was added and incubated at 4° C. for 1 hour. Geometric median fluorescence intensity was detected and EC₅₀ was calculated. In particular, it is noted, in contrast to the other antibodies tested in the same experiment, 060 cannot bind with cyno SIRPα and 035 has cross reactivity against C57BL/6 mouse SIRPα.
(§2) hu035.01, the first version of humanized 035, was characterized by FACS assay using CHOK1-human SIRPα v1-1B4 cells, ELISA assay using Fc tagged human SIRPα v2 ECD recombinant protein and SPR analysis using the antigen of 6×His tagged human SIRPα v2 ECD recombinant protein (refer to methods described in Example 3.4, Example 3.3 and Example 4.3). […] In particular, hu035.01 cannot be detected to bind with C57BL/6 mouse SIRPα ECD in ELISA assay possibly due to reduced binding activity (FIG. 5B).

[2] = target: T2, 6×His tagged human SIRPα v2 ECD recombinant protein (human); experiment: SPR (Biacore)
Experimental: (§3) Anti-SIRPα chimeric antibodies were characterized for binding affinity against human SIRPα v1, human SIRPα v2 and C57BL/6 mouse SIRPα using Biacore (GE). Briefly the antibodies to be tested were captured to CM5 chip (GE) using Human Antibody Capture Kit (GE). The antigens of 6×His tagged human SIRPα v1, human SIRPα v2 and C57BL/6 mouse SIRPα ECD recombinant proteins were serially diluted for multiple doses and injected at 30 μl/min for 180 s. Buffer flow was maintained for dissociation of 400 s. 3 M MgCl₂ was used for chip regeneration. The association and dissociation curves were fit with 1:1 binding model, and the Ka/Kd/KD values for each antibody were calculated.
as §2

[3] = target: T3, 6×His tagged C57BL/6 mouse SIRPα ECD recombinant protein (mouse (C57BL/6), UniProt P97797 32-373); experiment: ELISA on coated mouse SIRPα (C57BL/6) ECD, antibody at 10, 1 and 0.1 ug/ml [right panel mSIRPα ECD (C57BL/6]
T3 construct: extracellular domain; bought; also called mSIRPα (C57BL/6); mouse SIRPα (C57BL/6) ECD
T3 sequence: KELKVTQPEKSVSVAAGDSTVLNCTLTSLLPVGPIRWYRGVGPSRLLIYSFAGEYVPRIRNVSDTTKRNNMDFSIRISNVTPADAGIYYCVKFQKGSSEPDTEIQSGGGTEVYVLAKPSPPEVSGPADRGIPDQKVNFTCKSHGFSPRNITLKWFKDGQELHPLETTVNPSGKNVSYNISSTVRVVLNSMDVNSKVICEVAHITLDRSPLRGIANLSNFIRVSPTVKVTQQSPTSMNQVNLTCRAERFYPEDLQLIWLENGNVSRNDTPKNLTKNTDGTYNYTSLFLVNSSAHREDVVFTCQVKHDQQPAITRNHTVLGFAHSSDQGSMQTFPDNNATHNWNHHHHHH

[4] = target: T2, 6×His tagged human SIRPα v2 ECD …; experiment: SPR (Biacore), antibody captured, 6×His tagged human SIRPα v2 ECD as analyte
Experimental: as §3, §2

[5] = target: T4, biotin labeled soluble human SIRPα v1 ECD recombinant protein (human, UniProt P78324 31-373, biotin labeled); experiment: competitive ELISA, hSIRPα/CD47 blocking
T4 construct: extracellular domain

[6] = target: T5, 6×His tagged human SIRPα v1 ECD recombinant protein (human, UniProt P78324 31-373); experiment: SPR (Biacore), antibody captured
T5 construct: extracellular domain; bought; also called hSIRPα V1 (SPR antigen)
Experimental: as §3

[7] = target: T2, 6×His tagged human SIRPα v2 ECD …; experiment: SPR (Biacore), antibody captured
Experimental: as §3

[8] = target: T3, 6×His tagged C57BL/6 mouse SIRPα ECD …; experiment: SPR (Biacore), antibody captured
Experimental: as §3

[9] = target: T6, full length cyno SIRPα stably expressed on CHOK1 cells (cynomolgus monkey, UniProt A0A2K5VYQ9 31-507); experiment: FACS on CHOK1 cells
T6 construct: whole, on cells; also called CHOK1-cyno SIRPα-2A2 cells; CHOK1-cyno SIRPα
T6 sequence: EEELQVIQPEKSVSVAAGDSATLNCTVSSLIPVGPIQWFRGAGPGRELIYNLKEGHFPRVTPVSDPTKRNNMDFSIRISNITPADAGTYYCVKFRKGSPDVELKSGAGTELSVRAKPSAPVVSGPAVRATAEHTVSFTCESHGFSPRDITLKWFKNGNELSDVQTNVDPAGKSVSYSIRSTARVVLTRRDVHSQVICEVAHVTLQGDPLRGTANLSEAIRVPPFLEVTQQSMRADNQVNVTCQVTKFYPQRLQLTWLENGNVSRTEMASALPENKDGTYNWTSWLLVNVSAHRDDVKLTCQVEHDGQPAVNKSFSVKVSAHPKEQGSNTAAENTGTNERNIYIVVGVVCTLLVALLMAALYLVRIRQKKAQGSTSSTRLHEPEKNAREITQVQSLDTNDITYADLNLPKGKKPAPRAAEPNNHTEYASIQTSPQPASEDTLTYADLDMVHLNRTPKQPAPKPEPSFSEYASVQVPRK
Experimental: as §1

[10] = target: T7, full length C57BL/6 mouse SIRPα stably expressed on CHOK1 cells (mouse (C57BL/6), UniProt P97797 32-513); experiment: FACS on CHOK1 cells
T7 construct: whole, on cells; also called CHOK1-C57BL/6 mouse SIRPα-2.22 cells
T7 sequence (looked up): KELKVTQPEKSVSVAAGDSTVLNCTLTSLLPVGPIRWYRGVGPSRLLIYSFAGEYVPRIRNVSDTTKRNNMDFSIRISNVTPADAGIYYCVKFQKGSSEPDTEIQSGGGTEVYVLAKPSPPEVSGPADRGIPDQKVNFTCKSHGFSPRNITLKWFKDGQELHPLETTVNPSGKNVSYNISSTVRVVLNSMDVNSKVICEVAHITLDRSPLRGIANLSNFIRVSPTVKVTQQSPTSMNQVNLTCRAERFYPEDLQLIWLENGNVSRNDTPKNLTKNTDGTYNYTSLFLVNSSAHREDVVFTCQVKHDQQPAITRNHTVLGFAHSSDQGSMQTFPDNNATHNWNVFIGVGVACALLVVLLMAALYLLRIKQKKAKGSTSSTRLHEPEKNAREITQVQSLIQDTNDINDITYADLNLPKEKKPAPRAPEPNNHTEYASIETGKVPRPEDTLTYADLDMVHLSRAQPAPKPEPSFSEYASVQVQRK
Experimental: as §1

[11] = target: T1, full length human SIRPα v1 stably …; experiment: FACS on CHOK1 cells
Experimental: as §1

[12] = target: T5, 6×His tagged human SIRPα v1 ECD …; experiment: SPR (Biacore)
[13] = target: T2, 6×His tagged human SIRPα v2 ECD …; experiment: SPR (Biacore); remark: listed apart in the source
[14] = target: T3, 6×His tagged C57BL/6 mouse SIRPα ECD …; experiment: SPR (Biacore)
[15] = target: T3, 6×His tagged C57BL/6 mouse SIRPα ECD …; experiment: ELISA on coated mouse SIRPα (C57BL/6) ECD [Continued) F]
[16] = target: T8, Fc tagged human SIRPα v1 ECD recombinant protein (human, UniProt P78324 31-370); experiment: ELISA
T8 construct: range 1-370; cloned range M1-R370 includes the signal peptide; also called hSIRPα V1; not shown: human IgG Fc region (hFc) of the pCPC vector

[17] = target: T9, Fc tagged human SIRPα v2 ECD recombinant protein (human); experiment: ELISA
T9 construct: range 1-369; cloned range M1-R369 includes the signal peptide; also called hSIRPα V2

[18] = target: T10, Fc tagged human SIRPβ ECD recombinant protein (human, UniProt O00241 30-371); experiment: ELISA
T10 construct: range 1-371; cloned range includes the signal peptide; also called hSIRPβ; not shown: human IgG Fc region (hFc) of the pCPC vector

[19] = target: T11, 6×His tagged human SIRPα v8 ECD recombinant protein (human); experiment: ELISA
T11 construct: extracellular domain; bought; also called hSIRPα V8

[20] = target: T12, Fc tagged human SIRPγ ECD recombinant protein (human, UniProt Q9P1W8 29-360); experiment: ELISA
T12 construct: range 1-360; cloned range includes the signal peptide; also called hSIRPγ; not shown: human IgG Fc region (hFc) of the pCPC vector
T12 sequence (Q9P1W8 29-360 limits assumed, form in doubt): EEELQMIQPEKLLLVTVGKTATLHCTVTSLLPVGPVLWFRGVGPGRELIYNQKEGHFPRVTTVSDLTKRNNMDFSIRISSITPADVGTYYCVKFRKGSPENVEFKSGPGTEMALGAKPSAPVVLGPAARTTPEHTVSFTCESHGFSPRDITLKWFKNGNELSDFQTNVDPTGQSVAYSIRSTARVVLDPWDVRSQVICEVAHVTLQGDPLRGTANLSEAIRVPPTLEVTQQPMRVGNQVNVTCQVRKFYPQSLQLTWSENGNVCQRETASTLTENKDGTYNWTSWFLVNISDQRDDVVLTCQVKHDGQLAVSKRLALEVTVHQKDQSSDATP

T5 sequence (P78324 other isoform, or with tags, fused parts or gaps): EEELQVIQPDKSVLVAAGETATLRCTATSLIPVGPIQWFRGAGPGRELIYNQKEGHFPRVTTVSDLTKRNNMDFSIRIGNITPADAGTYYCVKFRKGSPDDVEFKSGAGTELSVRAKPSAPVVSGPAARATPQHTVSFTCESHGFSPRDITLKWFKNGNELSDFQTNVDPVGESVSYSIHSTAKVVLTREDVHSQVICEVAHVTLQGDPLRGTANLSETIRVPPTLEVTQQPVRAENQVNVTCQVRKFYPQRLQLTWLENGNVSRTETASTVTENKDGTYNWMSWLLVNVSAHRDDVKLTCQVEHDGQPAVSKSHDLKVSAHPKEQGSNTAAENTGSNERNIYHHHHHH
T2 sequence (chain, as listed by the source): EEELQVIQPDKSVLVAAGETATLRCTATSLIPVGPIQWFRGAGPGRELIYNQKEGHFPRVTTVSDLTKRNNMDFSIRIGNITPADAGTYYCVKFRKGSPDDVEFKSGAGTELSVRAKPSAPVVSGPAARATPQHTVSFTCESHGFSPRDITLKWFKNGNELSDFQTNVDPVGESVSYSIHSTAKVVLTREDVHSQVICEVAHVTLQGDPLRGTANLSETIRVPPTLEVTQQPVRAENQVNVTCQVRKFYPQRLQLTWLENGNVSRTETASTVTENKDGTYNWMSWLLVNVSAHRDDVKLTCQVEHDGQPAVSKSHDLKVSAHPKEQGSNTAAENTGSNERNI
T10 sequence (O00241 30-371 limits assumed, form in doubt): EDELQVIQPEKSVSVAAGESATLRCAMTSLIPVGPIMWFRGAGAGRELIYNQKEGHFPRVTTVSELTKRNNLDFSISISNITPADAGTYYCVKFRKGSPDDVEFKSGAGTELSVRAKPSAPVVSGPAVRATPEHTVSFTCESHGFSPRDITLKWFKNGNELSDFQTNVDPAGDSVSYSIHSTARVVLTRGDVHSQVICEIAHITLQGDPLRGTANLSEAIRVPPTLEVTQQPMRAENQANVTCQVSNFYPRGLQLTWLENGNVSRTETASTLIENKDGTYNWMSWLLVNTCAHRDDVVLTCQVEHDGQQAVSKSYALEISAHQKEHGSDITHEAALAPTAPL
T4 sequence (P78324 31-373): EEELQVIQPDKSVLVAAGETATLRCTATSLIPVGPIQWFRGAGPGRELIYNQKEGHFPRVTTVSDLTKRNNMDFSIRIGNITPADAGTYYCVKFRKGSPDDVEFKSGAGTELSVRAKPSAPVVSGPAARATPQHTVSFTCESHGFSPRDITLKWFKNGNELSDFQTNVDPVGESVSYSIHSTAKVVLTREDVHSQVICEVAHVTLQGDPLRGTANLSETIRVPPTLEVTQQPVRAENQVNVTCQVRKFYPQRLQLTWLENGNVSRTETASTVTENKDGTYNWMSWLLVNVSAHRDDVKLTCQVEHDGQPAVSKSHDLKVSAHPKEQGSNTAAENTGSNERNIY
T8 sequence (P78324 31-370 limits assumed): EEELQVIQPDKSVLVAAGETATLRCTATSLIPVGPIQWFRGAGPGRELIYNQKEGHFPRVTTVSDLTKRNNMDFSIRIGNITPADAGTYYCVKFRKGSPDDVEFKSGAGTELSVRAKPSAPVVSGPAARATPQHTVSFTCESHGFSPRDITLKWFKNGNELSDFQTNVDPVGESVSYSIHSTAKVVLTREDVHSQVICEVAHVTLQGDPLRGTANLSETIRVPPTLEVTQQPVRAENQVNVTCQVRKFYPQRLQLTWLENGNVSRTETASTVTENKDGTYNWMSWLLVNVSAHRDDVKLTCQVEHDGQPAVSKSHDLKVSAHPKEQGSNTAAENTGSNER

B1: humanized antibody hu035.01 (antibody, V domains shown)
VH: QIQLVQSGSELKKPGASVKVSCKASGYTFTNYAMNWVRQAPGQGLEWMGWINTYTGEPTYAQGFKGRFVFSLDTSVSTAYLQISSLKAEDTAVYYCARTRGYYDFDGGAFDYWGQGTLVTVSS
VL: DIQMTQSPSSLSASVGDRVTITCRASQNVGTHLAWFQQKPGKAPKSLIYSASYRYIGVPSRFSGSGSGTDFTLTISSLQPEDFATYYCQQYNTYPLTFGQGTKLEIK
notes: first humanized version of 035 (CDR graft on VH7-4-1 / VK1-16)
EC50 (read off the curve) [1]: ~0.5 µg/mL
Kd [2]: 53.4 nM
binding result [3]: no binding (tested: 10 ug/ml)
koff [4]: 0.00065 s⁻¹
kon [4]: 12200 M⁻¹ s⁻¹

B2: humanized antibody hu035.17 (antibody, V domains shown)
VH: QIQLVQSGSELKKPGASVKVSCRARGYTLTDYAMNWVRQAPGQGLEWMGFINTYTGEPTYAQGFKGRFVFSLDTSVSTAYLQIGSLKAEDTAVYYCARTRGYYDFDGGAFDYWGQGTLVTVSS
VL: DIQMTQSPSSLSASVGDRVTITCRASQNVGTHLAWYQQKPGKAPKSLIYSAIYRYIGVPSRFSGSGSGTDFTLTISSLQPEDFATYFCQQYNTYPLTFDQGTKLEIKR
IC50 [5]: 1.22 nM
Kd [6]: 0.86 nM
koff [6]: 0.00012 s⁻¹
kon [6]: 140000 M⁻¹ s⁻¹
Kd [7]: 2.17 nM
koff [7]: 0.000191 s⁻¹
kon [7]: 88300 M⁻¹ s⁻¹
Kd [8]: 25.9 nM
koff [8]: 0.0015 s⁻¹
kon [8]: 57900 M⁻¹ s⁻¹
EC50 [9]: 0.24 nM
MFI at 2 ug/ml [10]: 1120 MFI
EC50 [11]: 1.15 nM
Kd [12]: 0.86 nM
Kd [13]: 1.43 nM
Kd [14]: 25.9 nM
EC50 (read off the curve) [15]: ~0.04 µg/mL
EC50 [16]: 0.18 nM
EC50 [17]: 0.15 nM
EC50 [18]: 0.15 nM
EC50 [19]: 0.26 nM
EC50 [20]: 0.54 nM
